Positions count from the first letter of the chain named.
B1: 4G9-2 (antibody, human IgG1, kappa, V domains shown)
VH: QVQLVQSGAEVKKPGASVKVSCKASGYTFTTYGINWVRQATGQGLEWMGWINTYSGVPGYAQKFQGRVTMTLNTSISTAYMELSSLRSEDTAVYYCARGSGGFAYWGQGTLVTVSS
VL: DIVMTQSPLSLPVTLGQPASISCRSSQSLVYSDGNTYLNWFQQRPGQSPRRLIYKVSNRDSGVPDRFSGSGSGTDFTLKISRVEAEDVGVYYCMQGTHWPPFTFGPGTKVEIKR
B2: 4G9-12 (antibody, V domains shown)
VH: B1 VH with N73D
VL: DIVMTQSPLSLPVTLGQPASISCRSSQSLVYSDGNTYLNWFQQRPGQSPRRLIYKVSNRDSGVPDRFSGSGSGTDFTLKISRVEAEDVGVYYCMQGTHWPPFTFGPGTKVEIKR

Target: PD-1 on human CD4+ T cells (human, UniProt Q15116 25-288)
Assay: cell-based or functional assay

PD-1 on human CD4+ T cells, sequence (Q15116 25-288 limits assumed): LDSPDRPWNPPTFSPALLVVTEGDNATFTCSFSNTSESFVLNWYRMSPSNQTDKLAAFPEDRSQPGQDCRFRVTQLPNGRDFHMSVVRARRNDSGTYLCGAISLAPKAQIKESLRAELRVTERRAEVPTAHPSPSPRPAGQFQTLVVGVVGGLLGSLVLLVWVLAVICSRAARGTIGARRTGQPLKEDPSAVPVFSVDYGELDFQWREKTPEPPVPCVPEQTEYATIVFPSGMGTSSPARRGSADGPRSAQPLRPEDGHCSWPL

| Binder | IFN-γ levels in the supernatants of human CD4 T cells (ELISA), 4G9-2 at 25 µg/mL for 72 hours [fold] | ITK/SHP2 ratio (normalized to levels of PD-1), Protein A immunoprecipitation and Western blot [fold] |
| --- | --- | --- |
| B1 | 3 |  |
| B2 |  | 3 |
